The values that follow come from the nanobody polyreactivity screen of Harvey et al. (2022).

The nature of the data set: yeast display, Sf9 membrane polyspecificity reagent, FACS + sequencing; frameworks hold sequencing errors. The method in brief:
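A nanobody's polyreactivity label depends on the gate it was sorted from. Yeast display cells were stained with 10% biotinylated, detergent-solubilized Sf9 membrane reagent for 1 hour at 4 °C, enriched on streptavidin microbeads and sorted by FACS. The low and high (top ~1%) gates were set on anti-HA fluorescence for expression and streptavidin fluorescence for reagent binding.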
Consider “QFQHVESGGGLVQAGGSLRLSCAASGNTFYVYAMGWYRQAPGKERELVAGITTSGGSTYYADSVKGRFTISRDNAKNTVYLQMNSLKTEDTAVYYCATDISTSYYYKYSSFYQYDSWGQGTQVTVSS”, for which the “polyreactivity (PSR sort gate)” value is “low polyreactivity”.

With “QFQLEESGGGLVQAGGSIRLSCAASGFILDSYGMGWYRQAPGTERELVAAISQSDVSTYYADSVNGRYTISRDNAKNTVYLHMNSLKPEDTAVYYCAADRGGLRWFWQVLFDYWGQGTQVTVSS”, the “polyreactivity (PSR sort gate)” value is “low polyreactivity”.

With “QFQLEESGGGLVQAGGSLRLSCAASGITFRRYTMGWYRQAPGKERELVATISLSDGNTYYADSVKGRFTISRDNAKNTVYYQMNSLKPEDTAVYYCNARHTWHQTYDYWGQGTQVTVSS”, the “polyreactivity (PSR sort gate)” value was “low polyreactivity”.

Turning to “QFQLEESGGGLVQAGGSLRLSCAASGSTFLRYAMGWYRQAPGKERELVAAITGRGTRTYYADSVKGRFTISRDNAKNTVYLQMNSLKPEDTAVYYCAAELSFTPRYYEGRIFYYWGQGTQVTVSS”, the “polyreactivity (PSR sort gate)” value is “high polyreactivity”.

Take “QFQLLDSGGGLVQAGGSLRLSSAPSGFTIIGYDMGWYRQAPVKERELVAAIDWSGGSTYYADSVKGRFTISRDNAKYSVDLQMHSLKPEDTAVYYCNAEWSSKRFTGDDYWGQGTQVTVSS”: the “polyreactivity (PSR sort gate)” value is given as “low polyreactivity”.

Regarding “QFQLLESGGGLVQAGGSLRLICAASGFICSLYAMGWYRPAPGKERELVATINRRGTSTFYADSVKGRFTISRDNAKNTVYLQMNSLKPEDTAVYYCNAYPGAAIRSTGRYDYWGQGTQVTVSS”, the “polyreactivity (PSR sort gate)” value is recorded as “low polyreactivity”.

As to “QFQLVDSVRGLVQAGVSLRLSCAASGRIFVKYVIGSYRQAPGTESQLVAANRSYGGSPYYADSVKGRFTISRDNAKNTVYLQMNSLKPEDTAVYYCAKRLHYSAPRYTEYDEWGHGTQVTVSS”, the “polyreactivity (PSR sort gate)” value is on record as “high polyreactivity”.

For “QFQLVESCGGLVQAGGSLRLSCAASGPIFKSNAMGCYRQAPGKERELVAAISGSGGRTYYAHSVKGRFTISRDNANNTVYLQMNSLKPEDTAVYYCNAGGSYYARGMDYWGQGTQVTVSS”, the “polyreactivity (PSR sort gate)” value was “high polyreactivity”.

As to “QFQLVESGGCLVQAGGSLRISSASSGSTLANYAMGWYRQAPGKEREFVAAINSGGSTYYADSVKGRFTISRDIAKNTVYLQMNSLKPEDTAVYYCAARYASPRYKSKMDYWGQGTQVTVSS”, the “polyreactivity (PSR sort gate)” value was “high polyreactivity”.

For the sequence “QFQLVESGGGFVQAGGSLRLSGASSGIIFLANAMVWYRQSPGKEREFVAAISRSGSRTYDADSVKGRFTISRDHAKNSVYLQMNSVKPEDTAVYYCAAESPVLYYWGQGTQVTVSS”, the “polyreactivity (PSR sort gate)” value was “high polyreactivity”.

With “QFQLVESGGGLDQAGGSLRLSCAASGFTLNRNAMGWYRQAPGKETELVAAITRGGRTYYADSVKGRFTISRDNAKNTVYLQMNSLKPEDTAVYYCARTVGYRTLLESDSWGQGTQVTVSS”, the “polyreactivity (PSR sort gate)” value is listed as “high polyreactivity”.

For “QFQLVESGGGLDQAGGSLRLSCAASGRTFAYYALGWYRQAPGKESELVAAISSGGGSTYYADSVKGRFTISRDNAKYTFYLQMNSLKPEDTAVYYCAKERSSSRSGGTYYYWGQGTQVTVSS”, the “polyreactivity (PSR sort gate)” value was “high polyreactivity”.

As to “QFQLVESGGGLDQAGGSLRLSCAASGRTFHAYAMGSYRQAHGKGRELVAAITRTGTTHYADSVKGRFTISRDNAKNTVFLQMNSLKPEDTAVYYCAAQHVRVAAQFVLQGYDYWGQGTQVTVSS”, the “polyreactivity (PSR sort gate)” value is given as “low polyreactivity”.

Turning to “QFQLVESGGGLFQAGGSLRLSSAASGITFRYYAMGWYRQAPGKERELVAAITRSGSSTFYADSVKGRFTISLDNAKNTVYLQMNSLKPEDTAVYYCAAESVRAVFPDRYKYWGQGTQVTVSS”, the “polyreactivity (PSR sort gate)” value was “high polyreactivity”.

As for “QFQLVESGGGLGQAGGSNRLSCAASGRIFNIYAMGCYRQSPGKERELVADITSGGTKYADSVKGRFTISRDNAKNTVYLQMNSLKPEDTAVDYCAAEYLYYGGVDYWGQGTQVTVSS”, the “polyreactivity (PSR sort gate)” value is listed as “high polyreactivity”.

Turning to “QFQLVESGGGLLQAGGSLRLSCAASGRIFVPYVMGWYRQAPGKERELVASISDTDTSTYYADSVKGRFTISRDIAKNIVYLQMNSLKPEDTAVYYWNVDYWGQGTQVTVSS”, the “polyreactivity (PSR sort gate)” value is “low polyreactivity”.

For “QFQLVESGGGLVHAGGSLRLSCAASGITFQWNSMGWYRQAPGKERELVAVISSDGRTYYADSVKGRFTISRDNAKYTVYLQMNSLKPEDTAVYYCNADRSVIHRGYIWQPGRNDYWGHGTQVTVSS”, the “polyreactivity (PSR sort gate)” value is on record as “low polyreactivity”.

“QFQLVESGGGLVKAGGSLRLSCAASGLTNIYNARGWYRQAPGKERELVAAISGNGGDTYSADSVKGRFTISRDNAKNTVYLQMNSLKPEDTAVYYCAADYAYTPITWDEYWGQGTQVTVSS”: the “polyreactivity (PSR sort gate)” value is reported as “low polyreactivity”.

Consider “QFQLVESGGGLVLAGGSLRLSCAASGRTYLVNAMGWYRQAPGKERELVAVITRGGSTNYADSVKGRFTISRDNAKNTDYLQMNSLKPEDTAVYYCAKQFSPYRSYGPVVRYDYWGLGTQVTVSS”, for which the “polyreactivity (PSR sort gate)” value is “low polyreactivity”.

On to “QFQLVESGGGLVQAGASLRLSCAASGRIFEIYAMGWYRQAPGKDRELVAASSWRGVSTYYADSVKGRFTITRDNAKKTVYLQMNSLKPEDTAVYYCNKDVDYFWYVEYDYWGHGTQVTVSS”, for which the “polyreactivity (PSR sort gate)” value is listed as “low polyreactivity”.

Regarding “QFQLVESGGGLVQAGGILRLSCDASGSILARYALGWYRQAPGKERVLVAAISSRGGSTYYADSVKGRFSISRDNAKNTVYLQMNSLKPEDTAVYYCASYVYLQVEYDYWGQGTQVTVSS”, the “polyreactivity (PSR sort gate)” value is “low polyreactivity”.

For the sequence “QFQLVESGGGLVQAGGSIRSSCAASGIIFWGNAMGWYRQAPGKESELVATITGRGGSTYYADSVKGRFTISRDNAKNTVYLQMNSLKPEDTAVYYCNADSSRYYRALEYWGQGTQVTVSS”, the “polyreactivity (PSR sort gate)” value is reported as “low polyreactivity”.

As to “QFQLVESGGGLVQAGGSLPLSCAASGRTFGGNTMGRYREAPGKERELVAAISRRGGSTYYADSVKGRFTISRDNAKNTVYLQMNSLKPEDTAVYYCNKDGPSYSSYDYWGQGTQVTVSS”, the “polyreactivity (PSR sort gate)” value is reported as “low polyreactivity”.

“QFQLVESGGGLVQAGGSLRLICAASGITFYPNDMGWYRQSPGKERELVAAITTNDGDTYYADSVKGRFTISRDNAKNTVYLQMNSLKPEDTAVYYCAADSGSTSEYEYWGKGTQVTVSS”: the “polyreactivity (PSR sort gate)” value is on record as “low polyreactivity”.

Regarding “QFQLVESGGGLVQAGGSLRLICAASGLTFVYNDMGWYRQAHGKERELVAGITSGGSTYYADSVKGRFTISRDNAKNTVYLQMNSLKPEDTAVYYGAADGLSTDLFRPDSIVDYWGQGTQVTVSS”, the “polyreactivity (PSR sort gate)” value was “low polyreactivity”.

Turning to “QFQLVESGGGLVQAGGSLRLRCAASGQTFRYYAMGWYRQAPGKERELVAAITRRGSTYYADSVKGRFTISRDNAKNTVNLQINSLKPEDTAVYYCATVTGFHSSPLRDLDYWGQGTQVTVSS”, the “polyreactivity (PSR sort gate)” value is “high polyreactivity”.

In the case of “QFQLVESGGGLVQAGGSLRLSCAASGFIFTRYVMGWYRQAPGKERELVAAINWSGDSTYYADSVKGRFTISRDYAKNTVYLQLNSLKPEDTAVYYCNADYGWVDTYTNYDYWGQGTQVTVSS”, the “polyreactivity (PSR sort gate)” value is on record as “low polyreactivity”.

For “QFQLVESGGGLVQAGGSLRLSCAASGFTFYYYAMGWYRQAPGKERELVAAISSSGSSTYYADSVKGRFTISRVNAKNTVYLQMNSLKREDTAVYYWNARRYEYLWGDYWGQGTQVTVSS”, the “polyreactivity (PSR sort gate)” value was “high polyreactivity”.

Regarding “QFQLVESGGGLVQAGGSLRLSCAASGGTFGNNDMGWYRQAPGKERELVAAIRSAGTTYYADSVKGRFTISRDNAKNTVYLQMNSLKPEDTAVYYCNADTTGYWSYGFQYYGEDYWGQGTQVTVSS”, the “polyreactivity (PSR sort gate)” value was “low polyreactivity”.

In the case of “QFQLVESGGGLVQAGGSLRLSCAASGITFGSSAMGWYRQAPGKDRELVAAIDTSGDDTYYADSVKGRFTISRDNAKNTVYLQMNSLKPEDTAVYYCNAVSTASDEYDYWGQGSQVTVSS”, the “polyreactivity (PSR sort gate)” value is on record as “low polyreactivity”.

As to “QFQLVESGGGLVQAGGSLRLSCAASGITFGWYAMGWYRKATGKETELVASISSSGSTNYADSVKGRFTISRDNAKNTVYLQMNSLKPEDTAVYYCNKDYLLRQYYIYVIEGDYWGQGTLVTVSS”, the “polyreactivity (PSR sort gate)” value was “low polyreactivity”.

With “QFQLVESGGGLVQAGGSLRLSCAASGLIFPKYAMGWYRQAPGKEREFVAAISGRGGTTYYADSVKGRFTISRDNAKNTVYLQMNSLKPEDTAVYYCAAGGPWANIYGNGYWGQGTQVTVSS”, the “polyreactivity (PSR sort gate)” value is given as “high polyreactivity”.

“QFQLVESGGGLVQAGGSLRLSCAASGLTIDPNAMGWYRQAPGKERELVATITQTDGSTYYADSVKGRFTISRDNAKNTVYLQMNSLKPEDTAVYYCVGLVSRGSDYWGQGTQVTVSS”: the “polyreactivity (PSR sort gate)” value is given as “low polyreactivity”.

Regarding “QFQLVESGGGLVQAGGSLRLSCAASGRIFGENARGWYSQATRKEREFVAVISISDASTYYADSVKGRFTITRDNAKNTVYLQMNSLKREDTAVDYCAADLTDFLYVASDYWGQGTQVTVSS”, the “polyreactivity (PSR sort gate)” value was “low polyreactivity”.

Regarding “QFQLVESGGGLVQAGGSLRLSCAASGRIFNYYAMGWYRQAPGKERELVAAISARGGSTYYADSVKGRFTISRDNAKNTVYLQMNSLKPEDTAVYYCAVSSGSYGYGYWGQGTQVTVSS”, the “polyreactivity (PSR sort gate)” value is “high polyreactivity”.

In the case of “QFQLVESGGGLVQAGGSLRLSCAASGRIFRSNAMVWYRQAPGKERELVAAISWSGGSTYYADSVKGRFTISRDNAKNTVYLQMNSLKPEDTAVFYCAARYRGSRYDYWGQGTQVTVSS”, the “polyreactivity (PSR sort gate)” value is reported as “high polyreactivity”.

For “QFQLVESGGGLVQAGGSLRLSCAASGRIFVPNAMGWYRQAPGKEREFVAAINSGGSTYYADSVKGRFTISRDNAKNTVYLQMNSMKPEDTAVYYCAAVDFSSGYYGRLARYYYWGQGTQVTVSS”, the “polyreactivity (PSR sort gate)” value is “high polyreactivity”.

As to “QFQLVESGGGLVQAGGSLRLSCAASGRILSIYAMGWYSQAPGKESEMVAGITGGGRTHSADSVKGRFTISRDNAKNTVYLQMYSLKPEDTAVYSCSSLWRYQYRSKLSYYYWGQGTQVTVSS”, the “polyreactivity (PSR sort gate)” value is listed as “high polyreactivity”.

As for “QFQLVESGGGLVQAGGSLRLSCAASGRILYPNTMGWYRQAPGKEREVVAAISGSGSRTYYADSVKGRFTISRDNAKNNVYLQMNSLKPEDTAVYYCADRGDGTVGVSSPGKRRHYYWGQGTQVTVSS”, the “polyreactivity (PSR sort gate)” value was “high polyreactivity”.

With “QFQLVESGGGLVQAGGSLRLSCAASGRIRDNARGWYRQAPGKERELVAAISSSGGSTYYADSVKGRFTISRDNAKNTVYLQMNSLKPEDTAVYYCNAVRTGKIFGSWGQGTQVTVSS”, the “polyreactivity (PSR sort gate)” value is “high polyreactivity”.
